# Test results from patent US20210155687A1 (published 2021).
# T1: Human OSM (human)
# T1 chain: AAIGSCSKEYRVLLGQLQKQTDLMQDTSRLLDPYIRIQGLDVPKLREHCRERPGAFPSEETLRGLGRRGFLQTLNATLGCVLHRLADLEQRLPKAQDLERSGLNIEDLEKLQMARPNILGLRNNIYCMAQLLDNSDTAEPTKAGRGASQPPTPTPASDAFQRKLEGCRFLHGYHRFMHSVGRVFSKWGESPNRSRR
# B1: mab 1 (antibody)
# heavy: SYAMS
# light: EVQLVESGGGLVQPGGSLRLSCAASGFTFSSYAMSWVRQAPGKGLEWVATISDGGSFTYYLDNVRGRFTISRDNAKNSLYLQMNSLRAEDTAVYYCARDVGHTTFWYFDVWGRGTLVTVSS
# notes: Humanised anti-OSM antibody derived from murine 10G8; also called humanised mab 1 derived from 10G8; Mature H0 (IGHV3_23 CDRH1) heavy chain with Mature L1 light chain
# Experiments:
# Human OSM [1] = molecular target: T1, Human OSM; assay: in vivo affinity estimated from FTIH PK/PD data (rounded restatement of the TMDD estimate)
# Human OSM [2] = molecular target: T1, Human OSM; assay: in vivo affinity in serum, estimated with a TMDD model (one-compartment PK plus binding kinetics) from free and total OSM levels in the single ascending dose FTIH study
binder,measurement,setting,value
B1,Kd,Human OSM [1],~0.6 nM
same,Kd,Human OSM [2],0.568 nM
